# In publication PMC7668070 (2020):
# Molecular target: WT ACE2(740)-Fc (human, UniProt Q9BYF1 18-740)
# Test: BLI
binder,measurement,value
HCoV-NL63 spike RBD (domain or fragment) QHTDINFTATASFGGSCYVCKPHQVNISLNGNTSVCVRTSHFSIRYIYNRVKSGSPGDSSWHIYLKSGTCPFSFSKLNNFQKFKTICFSTVEVPGSCNFPLEATWHYTSYTIVGALYVTWSEGNSITGVPYPVSGI,Kd,22 nM
